In assay [1] the target is T1, human c-Met, membrane-bound on cells (human, UniProt P08581 25-1390). Description: cell-based or functional assay.
Assay [2] concerns the target T1, human c-Met, membrane-bound on cells. The assay can be described thus: flow cytometry on A431 cells. The procedure:
(§1) The binding of anti-c-Met antibodies and monovalent forms thereof (also termed “UniBody molecules” herein, see Example 5) to A431 cells expressing membrane-bound c-Met (purchased at ATCC, CRL-1555) was tested using flow cytometry (FACS Canto II, BD Biosciences). […] Binding of anti-c-Met antibodies and UniBody molecules was detected using a Phycoerythrin-conjugated goat-anti-human IgG antibody (Jackson). IgG1-5D5 was used as positive control antibody, and HuMab-KLH was used as isotype control antibody. EC₅₀ values were determined by means of non-linear regression (sigmoidal dose-response with variable slope) using GraphPad Prism V4.03 software (GraphPad Software, San Diego, Calif., USA).
(§2) Also maximum binding levels were unchanged between IgG1's and UniBody molecules. For antibodies 005, 006, 008, 035, 045 and 058, on the other hand, a more than 2-fold […] as well as a decrease in maximum binding level was observed when comparing IgG1 with their UniBody counterpart. This was most likely due to the […] (Kd) of these antibodies (see Example 14).
For orientation: In flow cytometry, cells or beads pass a laser one at a time.

The target is the same in assay [3]. The assay can be described thus: flow cytometry on A431 cells (PE goat anti-human IgG); second panel. The procedure:
as §1, §2

The target is the same in assay [4]. Description: flow cytometry on A431 cells (PE goat anti-human IgG); top panel. The procedure: as §1, §2
For assay [5], the target named is T2, cMetECDHis (human, UniProt P08581 25-932, limits assumed, biotinylated in the cross-block ELISA of Example 17).
T2 construct: Expressed in HEK-293F cells; also called soluble cMetECDHis; biotinylated cMetECDHis
The assay can be described thus: BLI (Octet); antibody captured, cMetECDHis in solution. The procedure:
Antibody binding to cMetECDHis was analyzed by means of Bio-Layer Interferometry (BLI) technology on the Octet System (Fortebio, Menlo Park, USA). Anti-human IgG coated biosensors (Fc-specific) were used to capture anti-c-Met antibodies according to the procedure recommended by the manufacturer. cMetECDHis derived from HEK293 cells was loaded on top of the immobilized anti-c-Met antibodies by placing the loaded biosensor into a well containing 10 μg/mL cMetECDHis diluted in 10 times diluted kinetics buffer (Fortebio). The difference in reflection of light (AA, nm) of the biosensor surface due to the binding of cMetECDHis was measured in real time during approximately 10 minutes and was used by the Octet software (V4.0, Fortebio) to calculate the association constant (kₐ [1/M×s]). Next, the loaded biosensor was placed into a well containing only kinetics buffer (10 times diluted in PBS) to determine the dissociation constant (kd [1/s]). Kinetics analysis was performed to determine the affinity (KD [M]) using model 1:1 (langmuir). As a positive control, 0.2 μg/mL 5D5 IgG1 produced in HEK293 cells, was used.
(In general: Biolayer interferometry detects binding as a change in optical thickness at a sensor tip.)

The target of assay [6] is T3, recombinant human c-Met extracellular domain (R&D systems) (human, UniProt P08581 25-932).
T3 construct: extracellular domain; Bought reagent; also called coated extracellular domain of c-Met; recombinant c-Met
The assay can be described thus: competition ELISA, residual Europium-HGF signal at 615 nm at the lower plateau of the fit; sheet prints no competing mAb ~66000, no HGF-Europium ~600; lower panel. As for the experimental part:
(§3) ELISA wells were coated overnight at 4° C. with 0.5 μg/mL recombinant human c-Met extracellular domain (R&D systems, Minneapolis, USA) diluted in PBS. Next, the ELISA wells were washed with PBST (PBS supplemented with 0.05% Tween-20 [Sigma-Aldrich, Zwijndrecht, The Netherlands]) and blocked for one hour at room temperature (RT) with PBST supplemented with 2% (v/v) chicken serum (Gibco, Paisley, Scotland). […] Mean fluorescence intensity at 615 nm was measured using the EnVision 2101 Multilabel reader (PerkinElmer) applying the following settings: Lance/Delfia dual mirror, emission filter 615, excitation filter 340 nm, delay time 400 μs, window 400 μs, 100 flashes, 2000 μs per cycle and bidirectional row-by-row reading. To determine IC₅₀ values, the binding curves were analyzed with non-linear regression (sigmoidal dose-response with variable slope, top-values constrained to a shared value for all data-sets) using GraphPad Prism V4.03 software (GraphPad Software, San Diego, Calif., USA).
(§4) FIG. 5 depicts representative examples of HGF binding inhibition curves of anti-c-Met antibodies for binding to the extracellular domain of recombinant human c-Met. 5D5 was used as positive control antibody. All anti-c-Met antibodies in the experiment shown were able to compete with Europium^{3±}-conjugated HGF for binding to recombinant c-Met. […] Without adding Europium³⁺-conjugated HGF, roughly ˜600 relative fluorescent units (RFU) were detected, indicating the signal when maximal inhibition is accomplished. When binding of Europium³⁺-conjugated HGF was not inhibited, approximately ˜66,000 RFU were detected.

The target in assay [7] is T3, recombinant human c-Met extracellular …. The assay can be described thus: competition ELISA on coated recombinant c-Met extracellular domain; blocked ligand Europium-conjugated HGF; column headed EC50 on the sheet, called IC50 in paragraph 270; lower panel. The procedure: as §3, §4
Background: In an ELISA, binding on a coated surface is turned into a signal by an enzyme label.

A word on the EC50: it is the concentration giving half of the maximal effect. A lower EC50 goes with a more potent agent. For orientation: Kd means the constant that tells how readily two partners part at equilibrium. A high value points to weaker binding. What is called koff is a measure of how fast the partners let go of each other. As a reminder, the kon is the rate constant with which the complex forms. A low value points to slow association. Broadly, the IC50 is the point on the concentration scale where inhibition reaches its midpoint.

B1: Uni-1016-022-TE (other)
VH: QVQLVESGGGVVQPGRSLRLSCAASGFTFSSYAMHWVRQAPGKGLEWVAVISYDGSNKYYADSVKGRFTISRDNSKNTLYLQMNSLRAEDTAVYYCARELLWFGELWGYFDLWGRGTLVTVSS
VL: DIQMTQSPSSVSASVGDRVTITCRASQGISSWLAWYQHKPGKAPKLLIYAASSLQSGVPSRFSGSGSGTDFTLTISSLQPEDFATYYCQEASSFTWTFGQGTKVEIK
notes: also called UniBody molecule of antibody 022
B1: the “percentage inhibition of viable KP4 cells (Alamarblue)” value in assay [1] was 57%. In addition, in assay [2], the “fold change of EC50, UniBody molecule against IgG1 of the identical clone” value (“fold change of EC50, UniBody molecule” below) was < 2 fold. It took 1.66 nM to reach a half-maximal effect in assay [3] (EC50).

B2: Uni-1016-006 (other)
VH: QVQLVQSGAEVKKPGSSVKVSCKASGGTFSSFGIGWVRQAPGQGLEWMGRIFPILGTANYAQMFQGRVTITADKSTSTAYMELTSLRSEDTAVYYCARDVGYDSADAFDIWGQGTMVTVSS
VL: DIQMTQSPSSLSASVGDRVTITCRASQGISSWLAWYQQKPEKAPKSLIYAASSLQSGVPSRFSGSGSGTDFTLTISSLQPEDFATYYCQQYNSYPPTFGQGTKVEIK
notes: also called UniBody molecule of antibody 006
Take B2: the “fold change of EC50, UniBody molecule” value in assay [2] is > 2 fold. The EC50 in assay [4] turned out to be 0.323 nM; in assay [3], 13.9 nM.

B3: Uni-1016-058-TE (other)
VH: EVQLVESGGGLVKPGGSLKLSCAASGFTFSDYYMYWVRQTPEKRLEWVATISDDGSYTYYPDSVKGRFTISRDNAKNNLYLQMSSLKSEDTAMYYCAREGLYYYGSGSYYNQDYWGQGTLVTVSS
VL: AIQLTQSPSSLSASVGDRVTITCRASQGLSSALAWYRQKPGKAPKLLIYDASSLESGVPSRFSGSGSGTDFTLTISSLQPEDFATYYCQQFTSYPQITFGQGTRLEIK
notes: also called UniBody molecule of antibody 058
In the case of B3, the “fold change of EC50, UniBody molecule” value in assay [2] was > 2 fold. For the same molecule, the EC50 in assay [4] was 0.67 nM.

B4: IgG4-058 (antibody, V domains shown)
VH: EVQLVESGGGLVKPGGSLKLSCAASGFTFSDYYMYWVRQTPEKRLEWVATISDDGSYTYYPDSVKGRFTISRDNAKNNLYLQMSSLKSEDTAMYYCAREGLYYYGSGSYYNQDYWGQGTLVTVSS
VL: AIQLTQSPSSLSASVGDRVTITCRASQGLSSALAWYRQKPGKAPKLLIYDASSLESGVPSRFSGSGSGTDFTLTISSLQPEDFATYYCQQFTSYPQITFGQGTRLEIK
notes: IgG4 format of clone 058; also called IgG4-1016-058
Turning to B4, the EC50 in assay [4] stood at 0.276 nM.

B5: anti-c-Met HuMab 096 (IgG1) (antibody, V domains shown)
VH: EVQLVQSGAEVKKPGESLKISCKGSGYSFTSYWIGWVRQMPGKGLEWMGIIYPGDSDTRYSPSFQGQVTISADKSISTAYLQWSSLKASDTAMYYCARQEITGDFDYWGQGTLVTVSS
VL: AIQLTQSPSSLSASVGDRVTITCRASQGISSALAWYQQKPGKAPNLLIYAASSLESGVPSRFSGSGSGTDFTLTISSLQPEDFATYYCQQFNSYPLTFGGGTKVEIK
notes: also called TH1016-096; PC1016-096
In assay [5], B5 registered a dissociation constant (Kd) of 2.55 nM, a koff of 0.0005 s⁻¹ and a kon of 196000 M⁻¹ s⁻¹. Moreover, the Bottom in assay [6] is 24800 RFU. Besides, the IC50 in assay [7] is 0.0152 µg/mL.
